B1: LINE1-full (parent)
chain: UACGUAGGUGGUUUUCCCCUGAUAGUGCUAAGGGGGCCUGGAAGUUUGGACUGGGCAGAGCUCAACACAGCGUGGCAAAGUGGCUGUGGCUAGACUGCCUCUCUGGAUUCCUCGUCACUCAGCAGGGCAUCUCUGAGAGAAAUGCC

Variants of: B1
Test: self-cleavage, relative activity (ratio to wild type); higher = more cleavage; in vitro, sequencing; the parent is a self-cleaving ribozyme

Row | Variant | self-cleavage
1 | G25U U119C | 1.74
2 | G25U U119A | 1.69
3 | U26C A77G | 1.93
4 | U26C A77C | 1.61
5 | U26A G55A | 0.25
6 | U26A G82U | 0.93
7 | A24G U143A | 0.72
8 | G25A A78G | 1.2
9 | U26A U102C | 1.13
10 | U26C G60A | 0.12
11 | U26A G126A | 0.82
12 | U26C U115C | 1.84
13 | U26C U115A | 1.33
14 | A24G A140U | 0.9
15 | A24G A140G | 1.68
16 | A24G G32A | 1.13
17 | A24U U39A | 0.84
18 | U26A U134A | 1.23
19 | G25A C99G | 0.06
20 | U26A U108C | 1.13
21 | U26C A107G | 1.33
22 | U26A A50G | 0.92
23 | G25U G49U | 1.21
24 | U26C U112A | 1.63

Row | Variant | self-cleavage
25 | U26C A65U | 0.14
26 | U26C A65G | 0.13
27 | A24G A43U | 1.54
28 | A24G A43G | 1.12
29 | A24G A64G | 0.53
30 | A24G A64C | 0.38
31 | G25A A136G | 1.58
32 | G25A U104A | 1.03
33 | G25C U102C | 1.31
34 | U26C C131A | 0.78
35 | U26C C131G | 2.07
36 | U26C U134A | 1.32
37 | U23G G122U | 1.17
38 | G25A A107G | 0.88
39 | A24G G53A | 1.8
40 | G25A U85A | 0.08
41 | A24G U85C | 0
42 | A24G C51U | 1.68
43 | U26C A50G | 1.14
44 | G25A A59G | 0.09
45 | A24U A43G | 1.33
46 | G25C U85C | 0.2
47 | U23C U104A | 1.14
48 | U23C U104C | 1.78

Row | Variant | self-cleavage
49 | A24U A79G | 0.97
50 | U26G A50G | 0.56
51 | U26A U91A | 0.44
52 | U26A U115A | 1.07
53 | G25A G35A | 0.91
54 | U26C A141G | 1.27
55 | A24C A64U | 0.58
56 | A24C A64G | 0.64
57 | U26A A31U | 1.43
58 | U26C C28U | 1.15
59 | U26G A59G | 0.41
60 | A24G C71U | 1.03
61 | U26C A92G | 0.04
62 | U26A C145A | 1.07
63 | U26C A59G | 0.08
64 | U26C A59C | 1.37
65 | U26A U39A | 0.99
66 | U26C U132A | 1.73
67 | G25A A42G | 1.38
68 | U26G A69G | 0.17
69 | U26A G44A | 1
70 | U26A U130C | 1.24
71 | A24U U29A | 1.12
72 | U26A A77U | 0.78

Row | Variant | self-cleavage
73 | U26A A77C | 0
74 | A24G A67U | 0.24
75 | A24U A121G | 1.08
76 | U26C U73G | 0.97
77 | A24G C131U | 1.59
78 | A24G A107U | 1.05
79 | G25A G44A | 1.16
80 | G25A A142C | 2.3
81 | G25A A142U | 0.93
82 | A24G G35U | 1.15
83 | A24U G40A | 0.71
84 | U23C U119A | 1.17
85 | U23C U119C | 1.61
86 | G25A A117U | 1.25
87 | U26C G97A | 0.07
88 | G25A U109A | 1.72
89 | A24G U132A | 1.12
90 | A24G U132C | 1.17
91 | A24U G33A | 1.07
92 | U26A U112A | 0.9
93 | U26A U112C | 1.18
94 | A24U A142C | 1.54
95 | A24U A142G | 1.29
96 | U26A U96A | 0.09

Row | Variant | self-cleavage
97 | U26A U96C | 0.16
98 | U26A A141U | 0.61
99 | U26C U81C | 1.93
100 | U26C U81A | 1.68
101 | A24G C98A | 0.13
102 | U26A U104C | 1.28
103 | A24U U26C | 0.97
104 | U23C U130C | 1.76
105 | U26C C38U | 1.29
106 | U23G U109A | 1
107 | A24U A92U | 0.7
108 | U26A C28U | 0.99
109 | U23C U108C | 1.38
110 | U23C U108A | 1.33
111 | U26C G86A | 0.05
112 | A24U G93A | 0.06
113 | A24U A138G | 0.94
114 | A24G U109A | 2.43
115 | A24C A67G | 0.42
116 | U26A G137A | 1.53
117 | A24G C37A | 1.07
118 | A24G C37U | 0.83
119 | U26C U96C | 0.29
120 | A24G C111A | 1.74

Row | Variant | self-cleavage
121 | U26C U87C | 0.26
122 | U26C U108G | 2.12
123 | U26C U108C | 1.76
124 | U26C U108A | 1.5
125 | U26C C120U | 1.17
126 | U26A G32A | 0.44
127 | A24U G126U | 1.22
128 | A24U G126A | 1.34
129 | A24U U132C | 1.07
130 | A24U U132A | 1.59
131 | A24G A77U | 1.04
132 | A24U G106A | 1.51
133 | U26C U100C | 1.29
134 | U26C A31U | 1.05
135 | U26C G44A | 1.17
136 | U26C U119A | 1.25
137 | U26C U47C | 1.88
138 | U26C G32C | 0.94
139 | U26C G32A | 1.03
140 | U26C A79G | 1.01
141 | U26C A79U | 0.68
142 | G25U U104A | 0.77
143 | G25A U130C | 0.8
144 | A24U G137U | 2.12

Row | Variant | self-cleavage
145 | G25U A43C | 1.32
146 | U26A G36C | 0.41
147 | U26A U52C | 0.8
148 | A24G A129C | 0.71
149 | A24G A129G | 1.19
150 | U26A U46C | 1.45
151 | U26A C113U | 0.86
152 | U26A A94G | 0.24
153 | A24U U102C | 1.09
154 | A24C A79U | 2.24
155 | A24G G54U | 0.68
156 | A24G G54C | 0.72
157 | A24G G54A | 0.67
158 | A24U A67G | 0.43
159 | U26C C146U | 1.68
160 | U26A U62A | 0.05
161 | U26A U62C | 0.04
162 | U26C G35C | 2.65
163 | U26C G35U | 1.56
164 | U26C G144A | 1.02
165 | G25A A43G | 1.27
166 | A24G A65G | 0.3
167 | U26C A43U | 1.21
